Measurements as given in article PMC12608094, “STN1 Shields CTC1 From TRIM32‐Mediated Ubiquitination to Prevent Cellular Aging” (Aging Cell, 2025).
One block for each molecule: values may come before it.

Assays:
[1] = target: T1, Flag-tagged CTC1 (wild type) (human, UniProt Q2NKJ3 1-1217)
T1 sequence (looked up): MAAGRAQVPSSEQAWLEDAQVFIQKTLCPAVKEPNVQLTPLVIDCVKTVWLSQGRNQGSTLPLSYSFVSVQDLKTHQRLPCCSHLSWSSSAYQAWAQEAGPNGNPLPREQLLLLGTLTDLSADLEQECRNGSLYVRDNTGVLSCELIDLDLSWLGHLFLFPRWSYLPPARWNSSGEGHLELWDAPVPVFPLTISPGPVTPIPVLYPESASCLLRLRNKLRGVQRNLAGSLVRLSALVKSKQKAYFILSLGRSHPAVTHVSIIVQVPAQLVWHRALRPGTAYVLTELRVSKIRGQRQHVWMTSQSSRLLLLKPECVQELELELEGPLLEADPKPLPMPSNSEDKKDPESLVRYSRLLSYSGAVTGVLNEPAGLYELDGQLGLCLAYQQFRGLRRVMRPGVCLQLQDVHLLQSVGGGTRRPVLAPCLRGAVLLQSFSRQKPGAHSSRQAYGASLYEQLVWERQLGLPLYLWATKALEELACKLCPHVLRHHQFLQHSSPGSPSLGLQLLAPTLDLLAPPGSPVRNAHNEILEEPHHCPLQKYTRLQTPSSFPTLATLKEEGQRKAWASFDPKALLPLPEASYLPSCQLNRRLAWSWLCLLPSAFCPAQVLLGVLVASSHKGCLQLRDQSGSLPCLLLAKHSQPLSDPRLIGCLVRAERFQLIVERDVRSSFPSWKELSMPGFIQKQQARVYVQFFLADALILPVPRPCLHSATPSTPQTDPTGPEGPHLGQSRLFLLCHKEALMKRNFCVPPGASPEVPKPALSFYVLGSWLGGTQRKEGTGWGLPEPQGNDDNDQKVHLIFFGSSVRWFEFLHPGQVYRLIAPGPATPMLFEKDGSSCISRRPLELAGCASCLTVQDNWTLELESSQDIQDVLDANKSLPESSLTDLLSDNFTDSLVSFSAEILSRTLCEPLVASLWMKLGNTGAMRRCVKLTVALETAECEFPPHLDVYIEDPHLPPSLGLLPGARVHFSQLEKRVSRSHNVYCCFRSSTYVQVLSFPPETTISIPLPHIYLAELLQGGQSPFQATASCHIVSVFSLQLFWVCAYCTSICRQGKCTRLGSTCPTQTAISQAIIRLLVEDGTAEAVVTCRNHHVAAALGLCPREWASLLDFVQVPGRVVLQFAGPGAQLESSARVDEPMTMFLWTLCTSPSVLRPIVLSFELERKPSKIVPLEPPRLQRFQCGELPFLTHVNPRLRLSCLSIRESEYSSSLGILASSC

[2] = target: T1, Flag-tagged CTC1 (wild type); test: cell-based or functional assay

- half-life of Flag-CTC1 in HEK293T cells (CHX chase over 12 h) with HA-STN1OB [1]: 8 h
Molecule: HA-tagged STN1 OB (N-terminal half-truncation) (domain or fragment)

- half-life of Flag-CTC1 in HEK293T cells (CHX chase over 12 h) with HA-STN1 wHTH [1]: 5 h
Molecule: HA-tagged STN1 wHTH (C-terminal half-truncation) (domain or fragment)

- half-life of Flag-CTC1 in HEK293T cells (CHX chase over 12 h) with HA-STN1 WT [2]: 10 h
B1: HA-tagged STN1 (wild type) (natural protein, human, UniProt Q9H668 1-368, looked up)
chain: MQPGSSRCEEETPSLLWGLDPVFLAFAKLYIRDILDMKESRQVPGVFLYNGHPIKQVDVLGTVIGVRERDAFYSYGVDDSTGVINCICWKKLNTESVSAAPSAARELSLTSQLKKLQETIEQKTKIEIGDTIRVRGSIRTYREEREIHATTYYKVDDPVWNIQIARMLELPTIYRKVYDQPFHSSALEKEEALSNPGALDLPSLTSLLSEKAKEFLMENRVQSFYQQELEMVESLLSLANQPVIHSASSDQVNFKKDTTSKAIHSIFKNAIQLLQEKGLVFQKDDGFDNLYYVTREDKDLHRKIHRIIQQDCQKPNHMEKGCHFLHILACARLSIRPGLSEAVLQQVLELLEDQSDIVSTMEHYYTAF
